Consider one substance from paper doi:10.1101/589119.

The target in the assay is core Cascade subunits (crRNA, Cas11, Cas7, Cas5, Cas6e) (E. coli K12) (UniProt Q46899). Kind of assay: single-particle tracking PALM.
UniProt Q46899, sequence (Q46899 whole entry, looked up): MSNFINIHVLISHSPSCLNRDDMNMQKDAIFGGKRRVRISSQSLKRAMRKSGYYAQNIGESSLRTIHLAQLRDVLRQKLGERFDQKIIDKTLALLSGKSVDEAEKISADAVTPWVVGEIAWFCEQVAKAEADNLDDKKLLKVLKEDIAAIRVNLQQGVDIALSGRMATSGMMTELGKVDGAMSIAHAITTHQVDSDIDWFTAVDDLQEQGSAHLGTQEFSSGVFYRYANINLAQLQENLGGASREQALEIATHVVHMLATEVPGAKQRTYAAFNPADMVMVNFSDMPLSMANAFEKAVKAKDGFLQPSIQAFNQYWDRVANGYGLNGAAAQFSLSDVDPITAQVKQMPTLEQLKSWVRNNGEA

Regarding “PAmCherry2-Cas8e (Cascade subunit Cas8e with a photoactivatable fluorescent protein fused to its N-terminus) (natural protein)”, the fraction of Cas8e in Cascade complexes stood at 60%.
